T1: GST-hnRNP H (GST-H) (UniProt P31943 1-449)
T1 sequence: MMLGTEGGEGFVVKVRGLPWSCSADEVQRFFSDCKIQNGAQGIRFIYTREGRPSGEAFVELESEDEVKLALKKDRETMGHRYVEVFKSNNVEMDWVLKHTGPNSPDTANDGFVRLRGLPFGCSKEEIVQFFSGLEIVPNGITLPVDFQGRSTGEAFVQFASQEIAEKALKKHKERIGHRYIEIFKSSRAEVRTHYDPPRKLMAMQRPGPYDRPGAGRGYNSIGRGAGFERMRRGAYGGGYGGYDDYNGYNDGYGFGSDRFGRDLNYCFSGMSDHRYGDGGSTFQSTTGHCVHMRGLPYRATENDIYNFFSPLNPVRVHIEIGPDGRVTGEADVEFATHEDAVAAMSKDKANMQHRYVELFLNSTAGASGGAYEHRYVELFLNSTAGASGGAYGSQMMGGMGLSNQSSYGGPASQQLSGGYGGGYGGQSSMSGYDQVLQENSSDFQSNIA


Assays:
GST-FUS (FUS/TLS) = GST-FUS (FUS/TLS) (UniProt P35637 1-526); experiment: EMSA; GST-FUS; Crosslinking: 1x Roeder D buffer, 1 mM ATP, 1.7 mM MgCl2, 0.1 uM heparin, 30 min 30 C; EMSA: 1 pmol 32P-RNA, native 6-8% PAGE, buffer details not in material; settings: protein: recombinant; tags: GST; label: 32P
GST-hnRNP H (GST-H) = molecular target: T1, GST-hnRNP H (GST-H); experiment: EMSA; 100-400 ng GST-H; Crosslinking: 1x Roeder D buffer, 1 mM ATP, 1.7 mM MgCl2, 0.1 uM heparin, 30 min 30 C; EMSA: 1 pmol 32P-RNA, native 6-8% PAGE, buffer details not in material; settings: protein: recombinant; tags: GST; label: 32P

Chain of GST-FUS (FUS/TLS) (P35637 whole entry): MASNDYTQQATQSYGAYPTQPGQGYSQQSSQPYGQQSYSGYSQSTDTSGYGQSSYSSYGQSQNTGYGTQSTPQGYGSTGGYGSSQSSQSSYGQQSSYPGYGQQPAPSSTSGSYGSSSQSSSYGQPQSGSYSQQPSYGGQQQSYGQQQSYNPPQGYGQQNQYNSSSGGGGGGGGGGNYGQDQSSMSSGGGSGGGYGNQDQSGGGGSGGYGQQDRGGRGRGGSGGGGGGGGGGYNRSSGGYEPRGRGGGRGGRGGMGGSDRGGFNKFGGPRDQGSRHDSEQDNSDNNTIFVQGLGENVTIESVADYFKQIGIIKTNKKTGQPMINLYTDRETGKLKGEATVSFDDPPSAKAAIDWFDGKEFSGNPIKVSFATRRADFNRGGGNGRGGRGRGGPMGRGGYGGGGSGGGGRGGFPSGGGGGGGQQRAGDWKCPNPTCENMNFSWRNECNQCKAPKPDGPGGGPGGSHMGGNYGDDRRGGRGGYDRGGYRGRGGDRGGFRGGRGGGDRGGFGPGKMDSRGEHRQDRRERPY

Binder | binding result (GST-FUS (FUS/TLS)) | binding result (GST-hnRNP H (GST-H))
GGGACGGCAGGGCGUGAGGGAGGCGAGGGCCGGGGUCUGGGCUCACGCCC (ssRNA) [rasISS1] | no binding | binds
GGGACGCCGGGGUCUGGGCUCACGCCC (ssRNA) [ΔrasISS1] |  | no binding

Reference: article PMC2491553, “P68 RNA Helicase (DDX5) Alters Activity of Cis- and Trans-Acting Factors of the Alternative Splicing of H-Ras”
